These results are taken from patent US20240360242A1 (KISOJI BIOTECHNOLOGY, published 2024).

Test [1] deals with T1, HEK-TROP2 Δ27-126 (human, UniProt P09758).
T1 construct: deletion of residues 27-126, transiently expressed on HEK cells
T1 sequence (membrane protein on transfected HEK cells, looked up): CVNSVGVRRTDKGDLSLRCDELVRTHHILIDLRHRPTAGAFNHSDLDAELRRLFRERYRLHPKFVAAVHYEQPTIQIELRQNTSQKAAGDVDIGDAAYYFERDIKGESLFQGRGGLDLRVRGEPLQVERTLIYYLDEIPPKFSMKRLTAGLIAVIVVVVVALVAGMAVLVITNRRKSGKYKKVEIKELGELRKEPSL
The test is described as follows: flow cytometry, 100 nM antibody, transiently transfected HEK cells, APC anti-human Fc. Here is the method:
(§1) To determine the effect of TROP2 truncations on the binding ability of anti-TROP2 sdAbs, the HEK parental cells were transiently transfected with human TROP2 mutants by lipofectamine. 24 hours after transfection, cells were collected and stained with anti-TROP2 antibodies (FIG. 13A and FIG. 13B). In brief, 1×10⁵ cells were incubated with an Fc receptor blocking antibody (1/100 dilution) for 10 minutes at room temperature. Anti-TROP2 antibodies were diluted in FACS staining buffer to 100 nM and added and incubated with cells for 30 minutes on ice. After washing three times with FACS staining buffer, APC-conjugated secondary antibodies recognizing the human Fc region (Biolegend, Cat #410712) were mixed with cells. After staining for 30 minutes, cells were washed three times, followed by resuspension into 100 μL of 7-Amino-Actinomycin D (7-AAD) solution (BD Biosciences, Cat #559925).
A general note: A flow cytometer gives signals particle by particle.

In test [2] the target is T2, HEK-TROP2 Δ27-36.
T2 construct: also called TROP2 delta 27-36
T2 membrane protein on transfected HEK cells: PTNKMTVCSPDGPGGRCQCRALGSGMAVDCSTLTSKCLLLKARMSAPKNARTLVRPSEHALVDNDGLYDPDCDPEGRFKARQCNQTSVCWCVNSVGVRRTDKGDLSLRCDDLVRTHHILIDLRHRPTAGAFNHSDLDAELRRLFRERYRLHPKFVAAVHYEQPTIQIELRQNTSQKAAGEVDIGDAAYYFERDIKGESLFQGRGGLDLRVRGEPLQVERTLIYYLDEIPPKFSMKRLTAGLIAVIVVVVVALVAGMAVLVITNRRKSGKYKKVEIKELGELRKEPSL
The test is described as above. The procedure: as §1

The target in test [3] is T3, BSA (bovine, UniProt P02769).
T3 construct: also called bovine serum albumin
The test can be described thus: ELISA on coated recombinant protein, 200 nM antibody, RLU. (In an ELISA, binding on a coated surface is turned into a signal by an enzyme label.)

The target of test [4] is T4, recombinant human EpCAM (human, UniProt P16422 24-265).
T4 construct: also called rhEpCAM
T4 sequence (looked up): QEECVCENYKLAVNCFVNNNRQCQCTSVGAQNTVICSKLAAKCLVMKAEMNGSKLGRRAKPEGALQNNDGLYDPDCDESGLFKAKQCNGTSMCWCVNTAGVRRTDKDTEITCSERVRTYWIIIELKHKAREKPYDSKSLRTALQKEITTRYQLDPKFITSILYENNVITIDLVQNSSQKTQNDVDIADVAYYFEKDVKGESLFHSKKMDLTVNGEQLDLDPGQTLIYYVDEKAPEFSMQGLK
The description is as above.

The target in test [5] is T5, recombinant human IGFBP-1 (human, UniProt P08833 26-259).
T5 construct: also called rhIGFB-1
T5 sequence (looked up): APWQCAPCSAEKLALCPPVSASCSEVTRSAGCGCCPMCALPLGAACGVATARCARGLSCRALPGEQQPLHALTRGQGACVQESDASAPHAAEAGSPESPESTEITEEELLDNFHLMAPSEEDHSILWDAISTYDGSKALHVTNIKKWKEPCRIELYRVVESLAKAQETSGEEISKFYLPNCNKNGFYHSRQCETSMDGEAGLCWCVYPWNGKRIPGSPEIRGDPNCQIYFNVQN
The test is described as above.

Test [6] deals with T6, recombinant cynomolgus/Rhesus TROP2 full-length extracellular domain (cynomolgus/Rhesus, UniProt P09758 27-274 (human entry)).
T6 construct: also called cynomolgus TROP2
T6 chain: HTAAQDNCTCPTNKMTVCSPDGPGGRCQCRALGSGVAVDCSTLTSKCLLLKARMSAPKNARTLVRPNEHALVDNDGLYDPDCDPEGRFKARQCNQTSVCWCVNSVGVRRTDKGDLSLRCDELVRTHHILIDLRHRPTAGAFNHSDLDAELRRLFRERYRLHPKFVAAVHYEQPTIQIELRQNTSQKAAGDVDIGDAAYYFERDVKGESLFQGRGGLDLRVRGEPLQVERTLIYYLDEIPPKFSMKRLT
The test is described as follows: SPR. (In general: SPR reads the build-up and loss of mass on a sensor chip optically.)

The target of test [7] is T7, recombinant human TROP2 extracellular domain (aa 1-274) comprising His tag (human, UniProt P09758 27-274).
T7 construct: Used here for all assays on recombinant human TROP2 (ELISA, immunoblot, SPR, crystal), although only some of them name the catalogue number; also called human recombinant TROP2; recombinant human TROP2 protein; not shown: His tag
T7 sequence: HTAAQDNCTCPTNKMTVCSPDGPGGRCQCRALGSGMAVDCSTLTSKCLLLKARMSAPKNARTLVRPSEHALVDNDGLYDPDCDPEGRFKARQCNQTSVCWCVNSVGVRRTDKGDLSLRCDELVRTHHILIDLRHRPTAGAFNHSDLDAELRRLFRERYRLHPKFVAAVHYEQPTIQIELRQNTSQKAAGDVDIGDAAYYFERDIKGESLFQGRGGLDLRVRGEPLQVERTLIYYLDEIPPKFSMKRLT
The test can be described thus: SPR.

T3 sequence (P02769 25-607 limits assumed): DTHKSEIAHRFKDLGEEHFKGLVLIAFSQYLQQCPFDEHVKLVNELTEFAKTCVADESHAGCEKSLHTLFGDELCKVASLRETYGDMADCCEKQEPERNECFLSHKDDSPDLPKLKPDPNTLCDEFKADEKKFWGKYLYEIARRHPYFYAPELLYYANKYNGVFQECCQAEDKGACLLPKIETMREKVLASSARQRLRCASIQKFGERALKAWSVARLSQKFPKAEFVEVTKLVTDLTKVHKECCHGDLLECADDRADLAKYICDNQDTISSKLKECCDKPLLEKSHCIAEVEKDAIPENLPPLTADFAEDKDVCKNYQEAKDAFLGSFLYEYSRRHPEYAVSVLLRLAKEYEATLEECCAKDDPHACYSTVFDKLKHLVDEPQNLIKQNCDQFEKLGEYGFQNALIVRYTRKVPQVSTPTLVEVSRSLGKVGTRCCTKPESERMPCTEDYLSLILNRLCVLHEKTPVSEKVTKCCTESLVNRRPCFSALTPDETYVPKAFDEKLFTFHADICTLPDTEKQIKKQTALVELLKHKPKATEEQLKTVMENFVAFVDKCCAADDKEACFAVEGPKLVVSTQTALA

B1: KD001 (antibody, human IgG1, V domains shown)
VH: QVQLQESGGGMVHPGGSLRLSCAASGFTFSGSDMSWVRQAPGKGPEWVSYITSGGTTYYPDSVKGRFTISRDNAKNTLYLQMNSLTPDDTALYRCAKARLTDSHYVEDAWGQGTQVTVSS
notes: also called anti-TROP2 sdAb KD001
For orientation: Kd means the free concentration of one partner at which half of the binding sites on the other are occupied at equilibrium, for simple one-to-one binding. For B1, the binding result in test [1] is reported as “no binding (tested: 100 nM)”; in test [2], “binds”; in test [3], “no binding (tested: 200 nM)”; in test [4] it was “no binding (tested: 200 nM)”; in test [5] it was “no binding (tested: 200 nM)”. In addition, the Kd in test [6] was 0.0257 nM; in test [7], 0.0826 nM.

B2: KD004 (antibody, human IgG1, V domains shown)
VH: QVQLQESGGGLVQPGRSLRLSCAASGFTFSGSDMSWVRQAPGKGPEWVSYITGSGTTYYPDSVKGRFTTSRDNAKNMLYLQMNSLKPDDTALYRCAKARLTDSHYVEDAWGQGTQVTVSS
notes: also called anti-TROP2 sdAb KD004
In the case of B2, the binding result in test [1] was “no binding (tested: 100 nM)”; in test [2], “binds”; in test [3], “no binding (tested: 200 nM)”; in test [4], “no binding (tested: 200 nM)”; in test [5] it was “no binding (tested: 200 nM)”. Further, the Kd amounted to 0.0358 nM in test [6] and 0.0294 nM in test [7].

B3: KD005 (antibody, human IgG1, V domains shown)
VH: QVQLQESGGGLVEAGGSLRLSCAASGFTFSGSDMSWVRQAPGKGPEWVSYITSGGTTYYPDSVKGRFTISRDNAKNTLYLQMNSLKPDDTALYRCAKSRLTDSHYVEDAWGQGTQVTVSS
notes: also called anti-TROP2 sdAb KD005
Take B3: the binding result in test [1] is given as “no binding (tested: 100 nM)”; in test [2], “binds”; in test [3], “no binding (tested: 200 nM)”; in test [4] it was “no binding (tested: 200 nM)”; in test [5], “no binding (tested: 200 nM)”. Also, the Kd in test [6] was determined as 0.0597 nM; in test [7], 0.0268 nM.

B4: KD007 (antibody, human IgG1, V domains shown)
VH: QVQLQESGGGLVQPGGSLRLSCAASGFAFSFYAMAWYRQAPGKQRDMVATITAYGNTNYADSVKGRFTTSRDNAKNTVYLQMNSLKPEDTAVYVCNANLPSASHNYWGQGTQVTVSS
notes: also called anti-TROP2 sdAb KD007
As to B4, the binding result in test [1] and in test [2] was “no binding (tested: 100 nM)” in each case.

B5: KD002 (antibody, human IgG1, V domains shown)
VH: QVQLQESGGGMVQVGGSLRLSCAASGFPFSSADMSWVRQAPGKGPEWVSYINADGSKTYYPDSVKGRFTISRDNAKNTLYLLMNNLKPEDTALYRCARAKLTDTHYVEDYWGQGTQVTVSS
notes: also called anti-TROP2 sdAb KD002
Take B5: the binding result is “no binding (tested: 100 nM)” in test [1]; “binds” in test [2]; “no binding (tested: 200 nM)” in test [3]; “no binding (tested: 200 nM)” in test [4]; “no binding (tested: 200 nM)” in test [5]. Also, the Kd in test [6] came out at 0.0811 nM; in test [7], 0.0432 nM.

B6: KD003 (antibody, human IgG1, V domains shown)
VH: QVQLQESGGGMVQPGGSLRLSCAASGFTFSNYDMSWVRQAPGKGPEWVSYINAGGSNTDYPDSVKGRFTISRDNAKNMLYLLMNNLKPEDTALYRCARAKLTDTHYVEDYWGQGTQVTVSS
notes: also called anti-TROP2 sdAb KD003
On to B6, for which the binding result in test [1] was “no binding (tested: 100 nM)”; in test [2], “binds”; in test [3], “no binding (tested: 200 nM)”; in test [4], “no binding (tested: 200 nM)”; in test [5], “no binding (tested: 200 nM)”. The Kd in test [6] came to 0.169 nM; in test [7] it was 0.0893 nM.
